Positions count from the first letter of the chain named.

The target of the assay is complement proteins. In words: cell-based or functional assay.

B1: G1098, P0DOX5 218-449 (Fc fusion)
chain: EPKSCDKTHTCPPCPAPELLGGPSVFLFPPKPKDTLMISRTPEVTCVVVDVSHEDPEVKFNWYVDGVEVHNAKTKPREEQYNSAYRVVSVLTVLHQDWLNGKEYKCKVSNKALPAPIEKTISKAKGQPREPQVYTLPPSREEMTKNQVSLTCLVKGFYPSDIAVEWESNGQPENNYKTTPPVLDSDGSFFLYSKLTVDKSRWQQGNVFSCSVMHGALHNHYTQKYLSLSPGKERKCCVECPPCP
For the molecule B1, the CDC inhibition IC50 (anti-CD20-coated Will-2 cells plus serum) was found to be 10 µg/mL.

B2: G1126, P0DOX5 218-449 (Fc fusion)
chain: B1 chain with E130R
Take B2: the CDC inhibition IC50 (anti-CD20-coated Will-2 cells plus serum) is 5 µg/mL.

Source of the values: patent publication US20190389941A1.
